Data published in the supplement of paper PMC9233669.
Variants at the floor of the assay were thinned out.

How the values were obtained:
[1] = system: biotinyl-Met-oxazolone; test: self-aminoacylation, catalytic enhancement (BMO) (fold over background); higher = more active; k-Seq, kA / k0A0; sequences stand for … in GGGAAUGGAUCCACAUCUACGAAUUC…UUCACUGCAGACUUGACGAAGCUG
Summary of the method: (§1)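 Each biotinyl-aminoacyl-oxazolone, at 2–1250 μM, was incubated with mutagenized RNA pools (0.43 μM) carrying a 21-nt variable region. The 50 μL reactions contained HEPES/NaCl/KCl/MgCl2/CaCl2 buffer with 5% acetonitrile at pH 6.9–7.0 and ran for 90 minutes at room temperature. After streptavidin capture, RNA was measured by qPCR in triplicate and by Illumina sequencing, and catalytic enhancement was calculated as median kA over the uncatalyzed rate from a pseudo-first-order fit of per-sequence fraction reacted.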

[2] = system: biotinyl-Leu-oxazolone; test: self-aminoacylation, catalytic enhancement (BLO) (fold over background); higher = more active; k-Seq, kA / k0A0; sequences stand for … in GGGAAUGGAUCCACAUCUACGAAUUC…UUCACUGCAGACUUGACGAAGCUG
Summary of the method: as §1

[3] = system: biotinyl-Val-oxazolone; test: self-aminoacylation, catalytic enhancement (BVO) (fold over background); higher = more active; k-Seq, kA / k0A0; sequences stand for … in GGGAAUGGAUCCACAUCUACGAAUUC…UUCACUGCAGACUUGACGAAGCUG
Summary of the method: as §1

[4] = system: biotinyl-Trp-oxazolone; test: self-aminoacylation, catalytic enhancement (BWO) (fold over background); higher = more active; k-Seq, kA / k0A0; sequences stand for … in GGGAAUGGAUCCACAUCUACGAAUUC…UUCACUGCAGACUUGACGAAGCUG
Summary of the method: as §1

[5] = system: biotinyl-Phe-oxazolone; test: self-aminoacylation, catalytic enhancement (BFO) (fold over background); higher = more active; k-Seq, kA / k0A0; sequences stand for … in GGGAAUGGAUCCACAUCUACGAAUUC…UUCACUGCAGACUUGACGAAGCUG
Summary of the method: as §1

[6] = system: biotinyl-Ile-oxazolone; test: self-aminoacylation, catalytic enhancement (BIO) (fold over background); higher = more active; k-Seq, kA / k0A0; sequences stand for … in GGGAAUGGAUCCACAUCUACGAAUUC…UUCACUGCAGACUUGACGAAGCUG
Summary of the method: as §1

| Sequence | self-aminoacylation [1] | self-aminoacylation [2] | self-aminoacylation [3] | self-aminoacylation [4] | self-aminoacylation [5] | self-aminoacylation [6] |
| --- | --- | --- | --- | --- | --- | --- |
| CCACACUUCAAGCUAUGGGUC [Fam1B.1 aminoacylation ribozyme variant] | 0.875 | 0.763 | 0.911 | 0.724 | 0.774 | 0.966 |
| CCACACUUCAAGGAAGCGGUC [Fam1B.1 aminoacylation ribozyme variant] | 1.06 | 1.13 | 1.28 | 0.619 | 0.364 | 0.986 |
| CCACACUUCAAGGAAUCGGGC [Fam1B.1 aminoacylation ribozyme variant] | 3.01 | 2.86 | 2.85 | 3.41 | 1.44 | 2.98 |
| CCACACUUCAAGGAAUCGGUG [Fam1B.1 aminoacylation ribozyme variant] | 7.21 | 10.5 | 4.61 | 6.57 | 52.1 | 4.9 |
| CCACACUUCAAGGAAUCGGUU [Fam1B.1 aminoacylation ribozyme variant] | 1.39 | 1.43 | 1.57 | 1.16 | 0.969 | 1.34 |
| CCACACUUCAAGGAAUCUGUC [Fam1B.1 aminoacylation ribozyme variant] | 0.442 | 0.318 | 0.446 | 0.287 | 0.473 | 0.384 |
| CCACACUUCAAGUAAUCGGUG [Fam1B.1 aminoacylation ribozyme variant] | 4.68 | 6.33 | 2.98 | 4.68 | 33.4 | 3.28 |
| CCACACUUCAAGUACUCGGUC [Fam1B.1 aminoacylation ribozyme variant] | 1.06 | 0.875 | 1.09 | 0.789 | 0.703 | 1.17 |
| CCACACUUCAAGUAUUCGGUC [Fam1B.1 aminoacylation ribozyme variant] | 1.42 | 1.39 | 1.64 | 1.52 | 0.932 | 1.63 |
| CCACACUUCAAUCAAGCGGUC [Fam1B.1 aminoacylation ribozyme variant] | 0.634 | 0.694 | 0.811 | 0.769 | 0.972 | 0.709 |
| CCACACUUCAAUCAAUCCGUC [Fam1B.1 aminoacylation ribozyme variant] | 0.641 | 0.61 | 0.823 | 0.611 | 0.663 | 0.655 |
| CCACACUUCAAUCAAUUGGUC [Fam1B.1 aminoacylation ribozyme variant] | 0.527 | 0.545 | 0.616 | 0.719 | 0.876 | 0.598 |
| CCACACUUCAAUCAGUCGGUC [Fam1B.1 aminoacylation ribozyme variant] | 0.815 | 0.723 | 0.796 | 0.687 | 0.869 | 0.963 |
| CCACACUUCACGAAAUCGGUC [Fam1B.1 aminoacylation ribozyme variant] | 1.07 | 1.16 | 1.09 | 1.02 | 0.814 | 0.987 |
| CCACACUUCACGCAAUCGAUC [Fam1B.1 aminoacylation ribozyme variant] | 0.55 | 0.514 | 0.606 | 0.618 | 0.676 | 0.568 |
| CCACACUUCACGCGAUCGGUC [Fam1B.1 aminoacylation ribozyme variant] | 1.48 | 1.84 | 2.17 | 2.37 | 6.79 | 1.46 |
| CCACACUUCACGUAAUCGGUC [Fam1B.1 aminoacylation ribozyme variant] | 0.822 | 0.733 | 0.914 | 0.591 | 0.967 | 0.892 |
| CCACACUUCAGGCAAUCGUUC [Fam1B.1 aminoacylation ribozyme variant] | 0.618 | 0.585 | 0.792 | 0.422 | 0.772 | 0.704 |
| CCACACUUCAGGCUAUCGGUC [Fam1B.1 aminoacylation ribozyme variant] | 1.1 | 1.23 | 1.33 | 1.39 | 0.514 | 1.33 |
| CCACACUUCAGGUAAUCGGUC [Fam1B.1 aminoacylation ribozyme variant] | 0.887 | 0.824 | 1.07 | 0.712 | 1.07 | 0.805 |
| CCACACUUCAUACAAUCGGUC [Fam1B.1 aminoacylation ribozyme variant] | 0.608 | 0.703 | 0.744 | 0.726 | 0.729 | 0.618 |
| CCACACUUCAUGCAAGCGGUC [Fam1B.1 aminoacylation ribozyme variant] | 0.854 | 1.01 | 0.835 | 0.681 | 0.633 | 1.08 |
| CCACACUUCAUGCAAUCGGUG [Fam1B.1 aminoacylation ribozyme variant] | 4.27 | 5.5 | 2.65 | 4.65 | 27 | 2.55 |
